For series [1], the target named is T1, B7-H3 (Homo sapiens, UniProt Q5ZPR3).
T1 construct: His tag (6xHis) (C); made in house
T1 sequence (Q5ZPR3 with tags, fused parts or gaps): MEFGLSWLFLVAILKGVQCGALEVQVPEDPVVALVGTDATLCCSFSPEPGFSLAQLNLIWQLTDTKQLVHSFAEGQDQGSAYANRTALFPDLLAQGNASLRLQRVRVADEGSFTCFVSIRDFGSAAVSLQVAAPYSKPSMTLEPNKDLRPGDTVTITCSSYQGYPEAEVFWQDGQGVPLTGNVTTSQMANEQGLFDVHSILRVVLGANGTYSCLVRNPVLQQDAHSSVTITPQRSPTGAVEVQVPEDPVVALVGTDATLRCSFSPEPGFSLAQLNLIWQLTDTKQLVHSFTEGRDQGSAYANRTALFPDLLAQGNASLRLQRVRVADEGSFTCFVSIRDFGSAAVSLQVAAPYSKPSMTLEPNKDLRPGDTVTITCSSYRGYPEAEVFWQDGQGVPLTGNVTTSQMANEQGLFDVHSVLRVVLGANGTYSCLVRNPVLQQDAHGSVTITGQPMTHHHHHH
In words: Pair-wise SPR binding assay for epitope grouping. The following applies: simultaneous binding assay, 12° C. From the text:
Pair-wise binding assays performed on Biacore T200 SPR instruments were used to determine the relative epitope grouping for the murine anti-B7-H3 mAbs as described in the methods below. […] Epitope groups are represented as individual ovals, some of which overlap with each other. Antibodies in different epitope groups can bind to B7-H3 simultaneously and likely bind to different epitopes while antibodies within a given epitope group cannot bind to B7-H3 simultaneously and likely bind to overlapping epitopes. The grouping information was derived from a simultaneous binding assay as described in materials and methods. Ab3, Ab4, Ab5, Abl 1, Ab12, and Ab8 groupings were ambiguous.
Pair-wise binding assays performed on Biacore T200 SPR instruments were used to determine the relative epitope grouping for a series of anti-B7-H3 mAbs. The assay format was Fc-based capture via immobilized anti-mouse(Fc) (Pierce 31170) or immobilized anti-human (Fc) (Pierce 31125). A standard amine coupling protocol was employed to immobilize the capture reagents via primary amines to the carboxy-methyl (CM) dextran surface of CM5 sensorchips (Biacore); capture antibodies were coupled to a level of approximately 2000 RU. Epitope grouping measurements were done at 12° C. (low temperature allows for grouping information on fast off-rate mAbs), the assay buffer was HBS-EP+(Biacore): 10 mM Hepes, pH7.4, 150 mM NaCl, 3 mM EDTA, 0.05% polysorbate 20. Each assay cycle consisted of the following steps in a four flowcell system: 1) separate test mAbs were captured in flowcells 2, 3 & 4 (flowcell 1 was reference, no test mAb); 2) all 4 flowcells were then blocked by injection with isotype control mAb or isotype mAb cocktail at 50 μg/mL; 3) all 4 flowcells were then injected with antigen or buffer only (buffer only is for double referencing, done for each mAb pair individually); 4) all 4 flowcells were then injected with 2nd test mAb at 10 μg/mL; 5) all 4 flowcells were then regenerated with glycine, pH1.5. The assay was done for each test mAb pair in reciprocal orientations. Simultaneous binding was evaluated examining the ratio of the 2nd test mAb response to the Ag response (RUmAb2/RUAg); if this ratio was equal to or greater than 0.2 the interaction was scored as a simultaneous binder. From this pair-wise binding assay data a “venn” style diagram was constructed manually to depict relative epitope groupings.

Series [2] deals with soluble ECD of cyno B7-H3. Kind of series: Biacore T200 SPR binding kinetics, mAb capture. The following applies: Biacore T200, Fc capture of mAb, B7-H3 ECD as analyte, 1:1 binding model. Set-up: species or system cynomolgus monkey.
The target in series [3] is T2, soluble ECD of human B7-H3 (Homo sapiens, UniProt Q5ZPR3).
T2 construct: His tag (6xHis) (C); made in house
T2 sequence (Q5ZPR3 with tags, fused parts or gaps): T1 sequence (Q5ZPR3 with tags, fused parts or gaps)
Kind of series: Biacore T200 SPR binding kinetics, mAb capture. The following applies: Biacore T200, Fc capture of mAb, B7-H3 ECD as analyte, 1:1 binding model. The protocol:
The binding affinity of the purified anti-B7-H3 monoclonal antibodies was determined by surface […]. […] The binding kinetics were derived from SPR measurements using a Biacore T200 instrument and a mAb capture approach (as described in the materials and methods below).
Biacore T200 SPR instruments were used to measure the binding kinetics of human B7-H3 (analyte) binding to various mAbs (ligands). The assay format was Fc-based capture via immobilized anti-mouse (Fc) (Pierce 31170) or immobilized anti-human (Fc) (Pierce 31125). A standard amine coupling protocol was employed to immobilize the capture reagents via primary amines to the carboxy-methyl (CM) dextran surface of CM5 sensorchips (Biacore); capture antibodies were coupled to a level of approximately 5000 RU. For binding kinetic measurements the assay buffer was HBS-EP+ (Biacore): 10 mM Hepes, pH7.4, 150 mM NaCl, 3 mM EDTA, 0.05% polysorbate 20. During the assay, all measurements were referenced against the capture surface alone. Each assay cycle consisted of the following steps: 1) Capture of ligand to approximately 50 RU; 2) Analyte injection over both reference and test surface, 240 μL at 80 μL/min, after which the dissociation was monitored for 900 seconds at 80 μL/min; 3) Regeneration of capture surface with low pH glycine. For kinetic determinations analyte injections were 3-point, 9-fold dilution series of 900 nM, 100 nM and 11.11 nM, buffer only injections were included for secondary referencing. Data were processed and fit to a 1:1 binding model using Biacore T200 Evaluation Software to determine the binding kinetic rate constants, ka (on-rate) and kd (off-rate), and the equilibrium dissociation constant (affinity, KD).

Series [4] deals with HCC38 cell line. Kind of series: Cell cytotoxicity of ADCs in HCC38 cell line. Format: cell-based. Conditions: Table 14; CZ conjugates. The essentials: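 Humanized anti-B7-H3 antibody (chAb18) variants conjugated to the Bcl-xL inhibitor synthon CZ and tested as ADCs for cytotoxicity in HCC38 cells.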
A short description of series [5]: Aggregation of conjugates by SEC. In kind it is physicochemical.
Series [6] concerns NCI-H146 cells. In words: In vivo xenograft model of small cell lung cancer (NCI-H146). Set-up: species or system mice. The following applies: 6 mg/kg/IP/QDx1.
The subject of series [7] is H847 cells. Kind of series: Cell cytotoxicity of ADCs in H847 cells. Conditions: Table 17; CZ conjugates; read-out: Cytotoxicity (H847 Cell line IC50). Format: cell-based. The text has this: These new anti-B7-H3 antibodies were further characterized for binding by SPR and conjugated to the Bcl-xLi synthon CZ and assessed for cell cytotoxicity (using the methods described in Example 7).

The target of series [8] is T1, B7-H3. Kind of series: Affinity of naked mAbs by SPR (Biacore). In kind it is binding. The following applies: Table 17. The method, then: The parental chAb18 from which the variants were derived was also tested as a comparator.
The mark [9] stands for this setting: Table 17, CZ conjugates of huAb3v2 variants.

Where a chain is given by its changes, count along the chain named.

Chain of soluble ECD of cyno B7-H3 (as listed by the source): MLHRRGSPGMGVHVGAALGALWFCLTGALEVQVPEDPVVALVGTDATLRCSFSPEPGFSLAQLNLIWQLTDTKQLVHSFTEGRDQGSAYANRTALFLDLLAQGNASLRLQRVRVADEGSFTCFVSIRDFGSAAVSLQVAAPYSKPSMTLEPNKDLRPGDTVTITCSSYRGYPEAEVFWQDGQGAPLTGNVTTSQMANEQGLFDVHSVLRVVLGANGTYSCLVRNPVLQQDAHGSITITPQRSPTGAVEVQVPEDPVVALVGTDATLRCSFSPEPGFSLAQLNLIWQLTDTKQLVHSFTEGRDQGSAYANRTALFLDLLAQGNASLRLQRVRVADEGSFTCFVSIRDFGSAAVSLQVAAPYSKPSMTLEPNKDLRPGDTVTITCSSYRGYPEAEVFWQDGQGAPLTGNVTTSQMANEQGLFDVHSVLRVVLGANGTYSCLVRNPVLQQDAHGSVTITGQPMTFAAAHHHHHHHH

B1: Ab11: murine anti-B7-H3 mAb (mouse hybridoma derived) (antibody, V domains shown)
VH: EVKLVESGGGLVQPGGSLRLSCATSGFTFTNYYMSWVRQPPGKALEWLGFIRNKANDYTTEYSASVKGRFTISRDNSQSILYLQMNTLRAEDSATYYCARESPGNPFAYWGQGTLVTVSA
VL: DIVMTQSPSSLTVTAGEKVTMTCKSSQSLLNSGTQKNFLTWYQQKPGQPPKLLIYWASTRESGVPDRFTGSGSGTDFTLTISSVQAEDLAVYFCQNDYIYPLTFGAGTKLELK
For B1, the “relative human B7-H3 epitope grouping” value in series [1] is “ambiguous”. Besides, in series [2], the “cynoB7-H3 ka” value was 27000 M⁻¹ s⁻¹ and the “cynoB7-H3 kd” value stood at 7.2e-05 s⁻¹. Moreover, in series [3], the “huB7-H3 ka” value was determined as 20000 M⁻¹ s⁻¹ and the “huB7-H3 kd” value was 0.00089 s⁻¹.

B2: Ab5: murine anti-B7-H3 mAb (mouse hybridoma derived) (antibody, V domains shown)
VH: QVQLQQPGDELVKPGASVKLSCKTSGYTFTTDWMHWVKQRPGQGLEWIGMIHPNSGTTNYNEKFKSKAALTVDKSSSTACMQLSSLTSEDSAVYYCARSYWKWYFDVWGTGTTVTVSS
VL: QIVLTQSPAIMSASLGEEITLTCSASSSVSYMHWYQQKSGTSPKLLIYSTSNLASGVPSRFSGSGSGTFYSLTISSVEAEDSADYYCHQWTSYMYTFGGGTKLEIK
As to B2, the “relative human B7-H3 epitope grouping” value in series [1] was “ambiguous”. Moreover, in series [2], the “cynoB7-H3 ka” value was 1.4e+06 M⁻¹ s⁻¹ and the “cynoB7-H3 kd” value was 0.28 s⁻¹. For the same molecule, in series [3], the “huB7-H3 ka” value worked out at 1.3e+06 M⁻¹ s⁻¹ and the “huB7-H3 kd” value is 0.012 s⁻¹.

B3: Ab8: murine anti-B7-H3 mAb (mouse hybridoma derived) (antibody, V domains shown)
VH: EVKLVESGGGLVKPGGSLKLSCAASGFTFSSYGMSWVRQTPEKRLEWVATISGGGNYTYCPDSVKGRFTISRDNAKNNLYLQMSSLRSEDTALYYCTRQRGYDYHYAMDFWGQGTSVTVSS
VL: DIQMTQSPASLSVSVGETVTITCRASENIYSNLAWHQQKQGKSPQLLVYAATNLADGVPSRFSGNGSDTQYSLKINSLQSEDFGSYFCQNFWGTSWTFGGGTKLEIK
Turning to B3, the “relative human B7-H3 epitope grouping” value in series [1] was “ambiguous”. In series [2], the “cynoB7-H3 ka” value worked out at 160000 M⁻¹ s⁻¹ and the “cynoB7-H3 kd” value amounted to 0.00026 s⁻¹. For the same molecule, in series [3], the “huB7-H3 ka” value is 58000 M⁻¹ s⁻¹ and the “huB7-H3 kd” value stood at 9.9e-05 s⁻¹.

B4: huAb3v2-CZ (conjugate)
VH: EVQLVQSGAEVKKPGSSVKVSCKASGYTFSSYWMHWVRQAPGQGLEWIGLIHPDSGSTNYNEMFKNRATLTVDRSTSTAYMELSSLRSEDTAVYYCAGGGRLYFDYWGQGTTVTVSS
VL: DIVMTQSPLSLPVTPGEPASISCRSSQSLVHSNGDTYLRWYLQKPGQSPQLLIYKVSNRFSGVPDRFSGSGSGTDFTLKISRVEAEDVGVYYCSQSTHVPYTFGGGTKVEIK
Consider B4, for which the 50% inhibitory concentration (IC50) was found to be 0.13 nM in series [4] and 1.49 nM in series [7]. In addition, the “% agg by SEC” value in series [5] (Table 14, CZ conjugates of Ab3 variants) worked out at 10.1%. For the same molecule, in series [6] (Table 15), the “TGD (%)” value was found to be 52%. Also, in series [6] (Table 15), the “TGImax (%)” value is listed as 83%.

B5: huAb3v2.8-CZ (conjugate)
VH: B4 VH with D54I
VL: B4 VL with G34R
As for B5, in series [8], the “Affinity of naked mAbs (Biacore, KD)” value is reported as “Poor fit”. Moreover, in series [5] (setting [9]), the “% agg by SEC” value stood at 5.7%. For the same molecule, in series [7], the half-inhibitory concentration (IC50) was 2.36 nM.

B6: huAb3v2.3-CZ (conjugate)
VH: B4 VH with D54W
VL: B4 VL with G34Q
In the case of B6, the “Affinity of naked mAbs (Biacore, KD)” value in series [8] is “Poor fit”. Further, the “% agg by SEC” value in series [5] (setting [9]) was determined as 1.5%.

B7: huAb3v2.2-CZ (conjugate)
VH: B4 VH with D54W
VL: B4 VL with G34R
With B7, the “Affinity of naked mAbs (Biacore, KD)” value in series [8] is on record as “Poor fit”. In addition, the “% agg by SEC” value in series [5] (setting [9]) is given as 1.8%. In addition, the IC50 in series [7] was determined as 26.7 nM.

B8: huAb3v2.9-CZ (conjugate)
VH: B4 VH with D54I
VL: B4 VL with G34Q
With B8, in series [8], the “Affinity of naked mAbs (Biacore, KD)” value is listed as “Poor fit”. For the same molecule, the “% agg by SEC” value in series [5] (setting [9]) amounted to 4.3%. For the same molecule, in series [6] (Table 23), the “TGD (%)” value was found to be 135% and the “TGImax (%)” value is 94%. The half-maximal inhibitory concentration (IC50) in series [7] was 2.3 nM.

B9: Ab12: murine anti-B7-H3 mAb (mouse hybridoma derived) (antibody, V domains shown)
VH: EVQLVESGGGLVKPGGSLKLSCAASGFTFSSYAMSWVRQTPEKRLEWVATISSGTNYTYYPDSVKGRFTISRDNAKNTLYLQMTSLRSEDTAMYYCARQGRYSWIAYWGQGTLVTVSA
VL: DIVLTQSPASLAVSLGQRATISCRASKSVSTSDYSYMHWNQQKPGQPPKLLIYLASNLESGVPARFSGSGSGTDFTLNIHPVEEEDAATYYCQHSRELLTFGAGTKLELK
In the case of B9, in series [1], the “relative human B7-H3 epitope grouping” value is given as “ambiguous”. Besides, in series [2], the “cynoB7-H3 ka” value was determined as 55000 M⁻¹ s⁻¹ and the “cynoB7-H3 kd” value amounted to 1e-05 s⁻¹. In series [3], the “huB7-H3 ka” value was determined as 38000 M⁻¹ s⁻¹ and the “huB7-H3 kd” value is 0.00025 s⁻¹.
